This is an account of results in patent US20100093977A1.

Experiment [1] deals with muc-1 on muc-1 positive human cancer cells (DU145; T47D) (human) (UniProt P15941). The experiment in a line: flow cytometry, dye labelled IgG on muc-1 positive T47D (printed T74D) cells.
Experiment [2] shares this target. The experiment in a line: flow cytometry, dye labelled IgG on DU145 cells, higher dose range.
The target is the same in experiment [3]. The experiment can be described thus: flow cytometry, dye labelled IgG 0.2 to 200 nM on DU145 cells.

Some results are limits rather than exact numbers.

UniProt P15941, sequence (P15941 24-1255, stated change not applied): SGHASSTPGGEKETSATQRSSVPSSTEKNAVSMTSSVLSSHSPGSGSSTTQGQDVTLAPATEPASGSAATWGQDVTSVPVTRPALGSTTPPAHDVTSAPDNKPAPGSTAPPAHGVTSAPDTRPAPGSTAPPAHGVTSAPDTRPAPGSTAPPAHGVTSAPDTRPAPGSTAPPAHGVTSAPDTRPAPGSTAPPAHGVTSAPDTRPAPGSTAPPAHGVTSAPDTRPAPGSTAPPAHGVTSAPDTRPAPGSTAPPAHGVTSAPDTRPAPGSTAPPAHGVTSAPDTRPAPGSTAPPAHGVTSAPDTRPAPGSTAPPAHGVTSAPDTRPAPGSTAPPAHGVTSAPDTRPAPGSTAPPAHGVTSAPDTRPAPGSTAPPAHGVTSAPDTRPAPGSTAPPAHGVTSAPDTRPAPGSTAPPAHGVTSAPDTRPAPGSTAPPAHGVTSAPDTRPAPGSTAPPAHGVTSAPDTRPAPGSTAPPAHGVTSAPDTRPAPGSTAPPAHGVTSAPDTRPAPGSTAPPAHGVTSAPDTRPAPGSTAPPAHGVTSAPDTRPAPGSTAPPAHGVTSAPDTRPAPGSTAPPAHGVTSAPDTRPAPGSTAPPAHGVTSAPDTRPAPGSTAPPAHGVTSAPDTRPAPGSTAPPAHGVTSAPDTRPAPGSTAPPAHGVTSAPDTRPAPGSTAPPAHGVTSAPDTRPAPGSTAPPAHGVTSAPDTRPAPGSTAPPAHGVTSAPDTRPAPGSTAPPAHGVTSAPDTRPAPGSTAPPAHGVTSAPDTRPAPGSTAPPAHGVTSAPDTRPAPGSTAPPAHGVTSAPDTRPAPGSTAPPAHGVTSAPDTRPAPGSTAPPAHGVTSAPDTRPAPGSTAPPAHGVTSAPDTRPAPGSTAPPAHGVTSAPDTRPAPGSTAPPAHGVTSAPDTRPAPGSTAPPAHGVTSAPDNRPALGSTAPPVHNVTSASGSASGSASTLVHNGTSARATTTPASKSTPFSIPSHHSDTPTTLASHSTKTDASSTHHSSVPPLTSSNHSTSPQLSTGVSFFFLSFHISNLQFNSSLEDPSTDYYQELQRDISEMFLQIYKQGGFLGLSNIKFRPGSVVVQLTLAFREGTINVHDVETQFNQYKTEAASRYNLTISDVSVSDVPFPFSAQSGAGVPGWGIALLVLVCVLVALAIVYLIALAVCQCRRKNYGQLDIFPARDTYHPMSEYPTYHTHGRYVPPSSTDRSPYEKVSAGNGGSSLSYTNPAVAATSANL

As to “hCTM01 S171C mutant IgG reduced with 5 mM 2-ME and labelled with AlexaFluor488-C5-maleimide (approximately 4 dyes per IgG; 3.9 dyes per IgG in FIG. 4) (antibody)”, the IgG concentration at which binding plateaus in experiment [1] is over 100 nM.
Substance “wild type CTM01 IgG labelled via lysine modification with AlexaFluor488-NHS ester (2 dyes per IgG) (antibody)” gave a percent lower binding than kappa cys171-dye labelled S171C mutant IgG in experiment [2] of 8%.
On to “wild type hCTM01 IgG reduced with 20 mM 2-ME and labelled with AlexaFluor488-C5-maleimide (approximately 4 dyes per IgG; 3.6 dyes per IgG in FIG. 4) (antibody)”, for which the IgG concentration at which binding plateaus in experiment [1] is 20 nM.
“wild type CTM01 IgG labelled with AlexaFluor 488-C5-maleimide under identical conditions (0.7 dyes per IgG) (antibody)” yielded a fold lower degree of binding than the S171C mutant labelled via kappa cys171 in experiment [3] of 6 fold.
